Measured values published in article PMC10267149, “The structure of phosphatidylinositol remodeling MBOAT7 reveals its catalytic mechanism and enables inhibitor identification” (Nature Communications, 2023).

Substrate: CCCCC/C=C\C/C=C\C/C=C\C/C=C\CCCC(=O)SCCNC(=O)CCNC(=O)[C@H](O)C(C)(C)COP(=O)(O)OP(=O)(O)OC[C@H]1O[C@@H](n2cnc3c(N)ncnc32)[C@H](O)[C@@H]1OP(=O)(O)O
Test: fluorescence assay of CoA-SH release with CPM
Assay type: biochemical, Homo sapiens
Details: PMAL-C8 reconstituted, 100 µM lyso-PI, pH 7.5, 37 °C, 2 mg/ml BSA

B1: MBOAT7 (Homo sapiens) (protein)
chain: MSPEEWTYLVVLLISIPIGFLFKKAGPGLKRWGAAAVGLGLTLFTCGPHTLHSLVTILGTWALIQAQPCSCHALALAWTFSYLLFFRALSLLGLPTPTPFTNAVQLLLTLKLVSLASEVQDLHLAQRKEMASGFSKGPTLGLLPDVPSLMETLSYSYCYVGIMTGPFFRYRTYLDWLEQPFPGAVPSLRPLLRRAWPAPLFGLLFLLSSHLFPLEAVREDAFYARPLPARLFYMIPVFFAFRMRFYVAWIAAECGCIAAGFGAYPVAAKARAGGGPTLQCPPPSSPEKAASLEYDYETIRNIDCYSTDFCVRVRDGMRYWNMTVQWWLAQYIYKSAPARSYVLRSAWTMLLSAYWHGLHPGYYLSFLTIPLCLAAEGRLESALRGRLSPGGQKAWDWVHWFLKMRAYDYMCMGFVLLSLADTLRYWASIYFCIHFLALAALGLGLALGGGSPSRRKAASQPTSLAPEKLREE
notes: full-length (1-472), C-terminal GFP-strepII removed by TEV; expressed in HEK293 freestyle cells; digitonin then amphipol PMAL-C8; monomer, 53 kDa
For B1, the Km was 46 µM.
